Here are results for one molecule from paper PMC9741609, “A widely distributed family of eukaryotic and bacterial deubiquitinases related to herpesviral large tegument proteins” (Nature Communications, 2022).

This experiment addresses T1, ubiquitin-PA (C-terminally propargylated ubiquitin 1-75) (human, UniProt P0CG48 1-75, C-terminal propargylamide (PA)).
T1 construct: also called Ub-PA; wildtype Ub-PA; not shown: intein (from the vector pTXB1), C-terminal, cleaved
As to the kind of experiment: crystal structure; covalent complex: 1.2 mM Wc-VTD1 incubated with 760 µM ubiquitin-PA for 18 h at 4 °C, unreacted proteins removed by SEC; crystals in 0.1 M BisTris propane pH 7.0, 2.0 M ammonium citrate tribasic at 20 °C. Conditions: both partners purified.

B1: Wc-VTD1 catalytic domain (aa279-494) (enzyme)
chain: KMPEEEQDSLAAFSRIEANITQYDPLLDNAGKSACTCICLKAAEMLLEASPDQVNAGLIDDILVEGVADYNRFKVGGVVEHTSVENYELNTFELKRLEFRDVDNPFSAEGNPYAGTLDSFAKMMEKASDSKDLPKPVALVMTKSNMTITIVIRPDGKYWLFDPHGTNGKGAYIESCNTDELIKKIKEIFPKTSYPGMTEDENLGFNSFEAYAVRRS
notes: also called wcw_1294; Waddlia VTD1; source: E. coli Rosetta (DE3) pLysS, purified (HisTrap, SEC)
As to B1, the binding result is given as “binds”.
